Test results taken from patent US20260028415A1 (FULL LIFE TECHNOLOGIES HK, published 2026).
Numbering of substitutions follows the chain as printed.

B1: anti-CEACAM5 single domain antibody of SEQ ID NO: 9 (VHH)
VHH: QVQLVESGGGLVQPGESLRLSCAASGFTFSSYAMSWVRQPPGKGIEWVAEIDSGGDRTDYAVPVKGRFTISRDNVENTLYLQMNSLKPEDTAVFYCAKGTHADFGSWGQGTLVTVSS
notes: tags or Fc in the assays are not described
B2: anti-CEACAM5 single domain antibody of SEQ ID NO: 10 (VHH)
VHH: EVDLMESGGGLVQPGGSLRLSCTASGDTLDYYAIDWFRQAPGKEREGVSCISSRGGTTNYADAVKGRFTISRDNAKNTVYLQMNSLRPEDTAVYYCAAEFTGWAVCNFSRKSGEYDYWGQGTQVTVSS
notes: as for B1
B3: anti-CEACAM5 single domain antibody of SEQ ID NO: 1 (VHH)
VHH: EVQLVESGGGLVQAGGSLRLSCVASTRIAGMGWYRAPPGKGRELVASISEEGTTTYAVPVEGRFTVSRDNVKNMLHLQMNSLKPEDTAMYYCVARRTFPSVVEGVDYWGQGTQVTVSS
notes: Alpaca sdAb clone expressed in E. coli
B4: anti-CEACAM5 single domain antibody of SEQ ID NO: 5 (VHH)
VHH: EVDLVESGGGLVQAGGSLRLSCAPSGRTSSLDTMAWFRQAPGKEREFVASTNWNRGGASYADSVKGRFTISRDATKNTVYLQINSLEPEDTAVYYCAASTRGIVSDNYWGQGTQVTVSS
notes: as for B1
B5: anti-CEACAM5 single domain antibody of SEQ ID NO: 4 (VHH)
VHH: B1 VHH with Q1E, T28S, K43M, D56G, R57S, E76K, L112Q
notes: as for B1
B6: anti-CEACAM5 single domain antibody of SEQ ID NO: 6 (VHH)
VHH: EVQLVESGGGLVQPGGSLRLSCAASRGTFSRLDMGWFRQAPGKEREFVASSTWSGGTAYATDSVKTRFTISRDSAKTTVYLQMNSLRPEDTAVYYCAAGLSLEQHTPPYWGQGTQVTVSS
notes: as for B1
B7: anti-CEACAM5 single domain antibody of SEQ ID NO: 8 (VHH)
VHH: AVQLVESGGGLVQAGGSLRLSCAASGRTFSSYWLGWFRQVPGEEREFVAAISWSGSGVVTNYADSVKGRFTISRDDGNNALYLQMSNLNPEDTAVYYCAARLGTYYKDYARSGAYDTWGQGTQVTVSS
notes: as for B1
B8: anti-CEACAM5 single domain antibody of SEQ ID NO: 2 (VHH)
VHH: QLQLVESGGGLVQPGGSLRLSCAVSGDRWDYYAIGWIRQAPGKEREGVSCISSSGRTTNYADSVKGRFTISRDNAKNTVYLQMNSLKPEDTAVYYCSTEFTGWDRCGFDEYDHRGQGTQVTVSS
notes: as for B1
B9: anti-CEACAM5 single domain antibody of SEQ ID NO: 7 (VHH)
VHH: EVQLVESGGGLVQAGGSLRLSCAASGRTFSRDVMGWFRQAPGKEREFVAVINWTDSTYYLDSVKGRFTISRENAENTVYLQMNSLKPEDTAIYYCATGIGGLYRRPSAYKYWGQGTQVTVSS
notes: as for B1
B10: anti-CEACAM5 single domain antibody of SEQ ID NO: 3 (VHH)
VHH: EVDLVESGGGLVQPGGSLRLSCAASGFTFSSYYMSWVRQPPGKGIEWVSEISSGGGSTNYAVPVEGRFTISRDNAKNTLSLQMNSLKPEDTALYYCARGSHADFNSWGQGTQVTVSS
notes: as for B1

Each molecule was assayed against T1, human CEACAM5 expressed on MKN45 cells (human, UniProt P06731 35-685) (assay: cell-based or functional assay).
T1 sequence: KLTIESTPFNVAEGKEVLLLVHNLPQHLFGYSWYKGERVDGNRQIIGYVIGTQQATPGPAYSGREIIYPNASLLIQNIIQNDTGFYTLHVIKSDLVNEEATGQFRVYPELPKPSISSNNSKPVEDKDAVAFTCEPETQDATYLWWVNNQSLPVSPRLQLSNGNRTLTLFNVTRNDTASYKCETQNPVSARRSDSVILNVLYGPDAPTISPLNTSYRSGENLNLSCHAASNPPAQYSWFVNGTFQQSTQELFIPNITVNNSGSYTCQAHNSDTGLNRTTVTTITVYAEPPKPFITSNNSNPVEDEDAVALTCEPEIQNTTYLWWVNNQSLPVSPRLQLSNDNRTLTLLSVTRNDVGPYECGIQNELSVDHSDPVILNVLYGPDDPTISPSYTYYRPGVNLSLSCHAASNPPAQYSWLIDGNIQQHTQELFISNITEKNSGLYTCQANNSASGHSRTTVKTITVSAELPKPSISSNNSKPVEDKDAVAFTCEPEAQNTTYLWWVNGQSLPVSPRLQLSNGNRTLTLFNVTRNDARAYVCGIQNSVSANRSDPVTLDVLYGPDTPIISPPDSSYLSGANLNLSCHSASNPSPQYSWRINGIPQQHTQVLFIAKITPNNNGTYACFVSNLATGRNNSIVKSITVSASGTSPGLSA

Molecule	EC50 (read off the curve), internalization by pHrodo [nM]
B1	25 to 30
B2	~20
B3	~20
B4	~20

Each molecule was assayed against T1, human CEACAM5 expressed on MKN45 cells (assay: flow cytometry on MKN45 cells, 300 nm [sic], PE-anti human Fc secondary; negative control).

Molecule	Geometric mean MFI [MFI]
Human IgG1 isotype (antibody)	12.9

These molecules were tested against T1, human CEACAM5 expressed on MKN45 cells (assay: flow cytometry on MKN45 cells, sdAb at 300 nm as printed, PE-anti human Fc secondary).

Molecule	Geometric mean MFI [MFI]
B5	394
B1	382
B3	292
B4	292
B6	647
B7	636
B8	565

These molecules were tested against T2, Human CEACAM5 A3B3 domain (human, UniProt P06731 499-685) (assay: SPR (Biacore T200), A3B3 domain captured on anti-human Fc CM5 chip, sdAb injected, 1:1 Langmuir).
T2 construct: also called human A3B3 domain; not shown: The human Fc part (and any linker) implied by capture on an anti-human Fc antibody chip
T2 sequence: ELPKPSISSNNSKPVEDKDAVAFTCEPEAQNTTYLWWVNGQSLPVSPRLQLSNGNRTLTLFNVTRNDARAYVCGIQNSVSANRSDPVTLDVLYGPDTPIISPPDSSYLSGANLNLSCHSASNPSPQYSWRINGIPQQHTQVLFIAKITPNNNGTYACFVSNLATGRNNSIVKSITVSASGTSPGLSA

Molecule	Kd [nM]	koff [s⁻¹]	kon [M⁻¹ s⁻¹]
B5	2	0.000311	155000
B1	0.732		
B2	48.9	0.0137	280000
B3	0.362	4.46e-05	123000
B4	9.74	0.00208	214000
B6	7.77	0.00126	162000
B9	19	0.013	688000
B7	19.1	0.00243	127000
B8	0.533	0.000997	1.87e+06
B10	7.74	0.0032	414000
